Data as given in publication PMC7813835, “Structure of SRSF1 RRM1 bound to RNA reveals an unexpected bimodal mode of interaction and explains its involvement in SMN1 exon7 splicing”.

Assays:
SRSF1 RRM1 YS = SRSF1 RRM1 YS (human, UniProt Q07955 1-97, Y37S;Y72S); assay: ITC; NMR buffer: 50 mM L-Glu, 50 mM L-Arg, 0.05% beta-mercaptoethanol, 20 mM Na2HPO4 pH 7 (RRM1+2: plus 150 mM KCl, 1.5 mM MgCl2, 0.2 mM EDTA); NMR and ITC at 40 C; conditions: protein: recombinant; tags: N-terminal GB1-6xHis
[1] = target: T1, SRSF1 RRM1+2 YS (RRM12 YS) (human, UniProt Q07955 1-196, Y37S;Y72S); assay: NMR; saturation at 1:1; NMR buffer: 50 mM L-Glu, 50 mM L-Arg, 0.05% beta-mercaptoethanol, 20 mM Na2HPO4 pH 7 (RRM1+2: plus 150 mM KCl, 1.5 mM MgCl2, 0.2 mM EDTA); NMR and ITC at 40 C; conditions: protein: recombinant; tags: GB1, His
[2] = target: T2, SRSF1 RRM1 (YS or WT not stated) (human, UniProt Q07955 1-97); assay: NMR; NMR buffer: 50 mM L-Glu, 50 mM L-Arg, 0.05% beta-mercaptoethanol, 20 mM Na2HPO4 pH 7 (RRM1+2: plus 150 mM KCl, 1.5 mM MgCl2, 0.2 mM EDTA); NMR and ITC at 40 C; conditions: protein: recombinant; tags: N-terminal GB1-6xHis
[3] = target: T1, SRSF1 RRM1+2 YS (RRM12 YS); assay: ITC; NMR buffer: 50 mM L-Glu, 50 mM L-Arg, 0.05% beta-mercaptoethanol, 20 mM Na2HPO4 pH 7 (RRM1+2: plus 150 mM KCl, 1.5 mM MgCl2, 0.2 mM EDTA); NMR and ITC at 40 C; conditions: protein: recombinant; tags: GB1, His
SRSF1 RRM1 WT = SRSF1 RRM1 WT (human, UniProt Q07955 1-97); assay: NMR; saturation at 1:1; NMR buffer: 50 mM L-Glu, 50 mM L-Arg, 0.05% beta-mercaptoethanol, 20 mM Na2HPO4 pH 7 (RRM1+2: plus 150 mM KCl, 1.5 mM MgCl2, 0.2 mM EDTA); NMR and ITC at 40 C; conditions: protein: recombinant; tags: N-terminal GB1-6xHis
[4] = target: T2, SRSF1 RRM1 (YS or WT not stated); assay: NMR solution structure; 1:1 complex; NMR buffer: 50 mM L-Glu, 50 mM L-Arg, 0.05% beta-mercaptoethanol, 20 mM Na2HPO4 pH 7 (RRM1+2: plus 150 mM KCl, 1.5 mM MgCl2, 0.2 mM EDTA); NMR and ITC at 40 C; conditions: protein: recombinant; tags: N-terminal GB1-6xHis
[5] = target: T1, SRSF1 RRM1+2 YS (RRM12 YS); assay: ITC; 143 in the reviewer reply; NMR buffer: 50 mM L-Glu, 50 mM L-Arg, 0.05% beta-mercaptoethanol, 20 mM Na2HPO4 pH 7 (RRM1+2: plus 150 mM KCl, 1.5 mM MgCl2, 0.2 mM EDTA); NMR and ITC at 40 C; conditions: protein: recombinant; tags: GB1, His

Sequence of SRSF1 RRM1 YS (Q07955 1-97 Y37S/Y72S): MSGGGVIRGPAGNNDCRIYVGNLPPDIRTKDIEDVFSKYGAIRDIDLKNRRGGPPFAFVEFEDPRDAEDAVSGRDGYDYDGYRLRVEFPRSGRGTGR
T1 sequence (Q07955 1-196 Y37S/Y72S): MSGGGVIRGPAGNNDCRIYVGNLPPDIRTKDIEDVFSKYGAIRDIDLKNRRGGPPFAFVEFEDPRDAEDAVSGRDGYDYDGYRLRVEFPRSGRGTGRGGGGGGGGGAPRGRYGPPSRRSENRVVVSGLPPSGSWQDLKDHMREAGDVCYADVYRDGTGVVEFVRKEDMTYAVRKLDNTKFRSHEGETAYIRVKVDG
T2 sequence (Q07955 1-97): as the sequence (Q07955 1-97 Y37S/Y72S) above, with S37Y, S72Y counted along it
Sequence of SRSF1 RRM1 WT (Q07955 1-97): as the sequence (Q07955 1-97 Y37S/Y72S) above, with S37Y, S72Y counted along it

UUUUUU (ssRNA) [UUUUUU RNA (polyU)]
binding result (SRSF1 RRM1 YS): no binding

UCAUUGGAUUUUUCAU (ssRNA)
binding result [1]: binds

CCCCCC (ssRNA) [polyC (NMR, length not stated)]
binding result [2]: binds

CCCCCC (ssRNA) [CCCCCC RNA (polyC)]
Kd (SRSF1 RRM1 YS): 11 µM

AAAAAA (ssRNA) [polyA (NMR, length not stated)]
binding result [2]: no binding

UGGAUUUUUCAU (ssRNA)
Kd [3]: 0.055 µM

UUCAGA (ssRNA) [SMN1 exon7 ESE1]
binding result [2]: binds

UUUUUGGAU (ssRNA)
Kd [3]: 0.164 µM

AACGAA (ssRNA) [AACGAA RNA]
binding result [2]: binds
Kd (SRSF1 RRM1 YS): 25 µM

UUUAGA (ssRNA) [SMN2 exon7 ESE1 counterpart]
binding result [2]: no binding

UUUUUU (ssRNA) [polyU (NMR, length not stated)]
binding result [2]: no binding

GGGGGG (ssRNA) [polyG (NMR, length not stated)]
binding result [2]: no binding

AACAAA (ssRNA) [AACAAA RNA]
Kd (SRSF1 RRM1 YS): 21 µM
binding result (SRSF1 RRM1 WT): binds
binding result [4]: binds

UGGAUUUUUUUU (ssRNA)
Kd [5]: 0.145 µM
